# Data as given in patent US20170291930.
# T1: Hst-5 synthetic peptide K17R
# T1 chain: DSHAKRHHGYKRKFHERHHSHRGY
# T2: Hst-5 synthetic peptide K17L
# T2 chain: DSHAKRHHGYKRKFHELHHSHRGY
# B1: purified recombinant Sap2 (C. albicans secreted aspartic protease 2) (protein)
# chain: QAVPVTLHNEQVTYAADITVGSNNQKLNVIVDTGSSDLWVPDVNVDCQVTYSDQTADFCKQKGTYDPSGSSASQDLNTPFKIGYGDGSSSQGTLYKDTVGFGGVSIKNQVLADVDSTSIDQGILGVGYKTNEAGGSYDNVPVTLKKQGVIAKNAYSLYLNSPDAATGQIIFGGVDNAKYSGSLIALPVTSDRELRISLGSVEVSGKTINTDNVDVLLDSGTTITYLQQDLADQIIKAFNGKLTQDSNGNSFYEVDCNLSGDVVFNFSKNAKISVPASEFAASLQGDDGQPYDKCQLLFDVNDANILGDNFLRSAYIVYDLDDNEISLAQVKYTSASSISALT
# How the values were obtained:
# [1] = target: T1, Hst-5 synthetic peptide K17R
# [2] = target: T2, Hst-5 synthetic peptide K17L
protein,measurement,setting,value
B1,cleavage at the C-terminal side of residue 17 by Sap2 (mass spectrometry),[1],"Substitutions at K17 did lead to a significant decrease in signals from fragments formed by cleavage at the C-terminal side of K17, however, unlike Sap9, Sap2 still cleaved K17L and K17R at this site"
same,cleavage at the C-terminal side of residue 17 by Sap2 (mass spectrometry),[2],"Substitutions at K17 did lead to a significant decrease in signals from fragments formed by cleavage at the C-terminal side of K17, however, unlike Sap9, Sap2 still cleaved K17L and K17R at this site"
